In patent US20260109764A1 (CAEDO ONCOLOGY, published 2026):
Values joined by “and” are separate entries in the source; they are usually repeats but may differ in a detail not shown here. Identical values can stand only once.

B1: CO201-scFv (scFv)
scFv: QVQLVQSGSELKKPGASVKVSCKASGYTFTNFGMHWVRQAPGQGLEWMGWINTYTGEPTYTDDFKGRFVFSLDTSVSTAYLQISSLKAEDTAVYYCARGDYRYGDSWGQGTTVTVSSGGGGSGGGGSGGGGSDIVMTQTPLSLSVTPGQPASISCRSSQSLVHSNGKTYLHWYLQKPGQPPQLLIYRVSNRFSGVPDRFSGSGSGTDFTLKISRVEAEDVGVYYCSQSTHVPFTFGQGTKLEIK
notes: FITC-conjugated in the flow cytometry assays, unconjugated in SPR; also called huCO-scFv (collective); humanized scFv version of CO201
B2: CO209-scFv (scFv)
scFv: QVQLVQSGSELKKPGASVKVSCKASGYTFTNFGMHWVRQAPGQGLEWMGWINTYTGEPTYTDDFKGRFVFSLDTSVSTAYLQISSLKAEDTAVYYCARGDYRYGDSWGQGTTVTVSSGGGGSGGGGSGGGGSDIVMTQTPLSLSVTPGQPASISCRSSQSLVHSNGKTYLHWYLQKPGQSPKLLIYRVSNRFSGVPDRFSGSGSGTDFTLKISRVEAEDVGVYYCSQSTHVPFTFGQGTKLEIK
modifications: FITC-conjugated in the flow cytometry assays, sites not stated; unconjugated in SPR.
notes: FITC-conjugated in the flow cytometry assays, unconjugated in SPR; also called huCO-scFv (collective)
B3: CO213-scFv (scFv)
scFv: QVQLVQSGSELKKPGASVKVSCKASGYTFTNFGMHWVRQAPGQGLKWMGWINTYTGEPTYTDDFKGRFVFSLDTSVSTAYLQISSLKAEDTAVYYCARGDYRYGDSWGQGTTVTVSSGGGGSGGGGSGGGGSDIVMTQTPLSLSVTPGQPASISCRSSQSLVHSNGKTYLHWYLQKPGQPPQLLIYRVSNRFSGVPDRFSGSGSGTDFTLKISRVEAEDVGVYYCSQSTHVPFTFGQGTKLEIK
modifications: FITC-conjugated in the flow cytometry assays, sites not stated; unconjugated in SPR.
notes: as for B2
B4: CO-1.4 (antibody, V domains shown)
VH: QIQLVQSGPELKKPGETVKISCKASGYTFTNFGMHWVKQAPGKGLKWMGWINTYTGEPTYTDDFKGRFAFSLETSASTAYLQINSLKNEDTATFFCTRGDYRYGDSWGQGTTLTVSS
VL: DVVMTQTPLSLPVSLGDQASISCRSSQSLVHSNGKTYLHWYLQKPGQSPKLLIYRVSNRFSGVPDRFSGSGSGTDFTLKISRIEAEDLGVYFCSQSTHVPFTFGSGTKLEIK
notes: Divalent comparator antibody against CD47; also called full length IgG4 format of the CO-1 antibody; chimeric IgG4 comparator antibody
B5: CO-1 scFv (scFv)
scFv: QIQLVQSGPELKKPGETVKISCKASGYTFTNFGMHWVKQAPGKGLKWMGWINTYTGEPTYTDDFKGRFAFSLETSASTAYLQINSLKNEDTATFFCTRGDYRYGDSWGQGTTLTVSSGGGGSGGGGSGGGGSDVVMTQTPLSLPVSLGDQASISCRSSQSLVHSNGKTYLHWYLQKPGQSPKLLIYRVSNRFSGVPDRFSGSGSGTDFTLKISRIEAEDLGVYFCSQSTHVPFTFGSGTKLEIK
notes: Murine VH and VL of mCO-1 in single chain format; Detected on cells with anti-His6-FITC, so it carries a His tag; also called CO-1 scFv fragment; scFv fragment of mCO-1
B6: CO201-scFv-Fc-mono (Fc fusion)
chain 1: QVQLVQSGSELKKPGASVKVSCKASGYTFTNFGMHWVRQAPGQGLEWMGWINTYTGEPTYTDDFKGRFVFSLDTSVSTAYLQISSLKAEDTAVYYCARGDYRYGDSWGQGTTVTVSSGGGGSGGGGSGGGGSDIVMTQTPLSLSVTPGQPASISCRSSQSLVHSNGKTYLHWYLQKPGQPPQLLIYRVSNRFSGVPDRFSGSGSGTDFTLKISRVEAEDVGVYYCSQSTHVPFTFGQGTKLEIKSKYGPPCPSCPAPEFLGGPSVFLFPPKPKDTLMISRTPEVTCVVVDVSQEDPEVQFNWYVDGVEVHNAKTKPREEQFNSTYRVVSVLTVLHQDWLNGKEYKCKVSNKGLPSSIEKTISKAKGQPREPQVYTLPPSQEEMTKNQVSLWCLVKGFYPSDIAVEWESNGQPENNYKTTPPVLDSDGSFFLYSRLTVDKSRWQEGNVFSCSVMHEALHNHYTQKSLSLSLGK
chain 2: SKYGPPCPSCPAPEFLGGPSVFLFPPKPKDTLMISRTPEVTCVVVDVSQEDPEVQFNWYVDGVEVHNAKTKPREEQFNSTYRVVSVLTVLHQDWLNGKEYKCKVSNKGLPSSIEKTISKAKGQPREPQVYTLPPSQEEMTKNQVSLSCAVKGFYPSDIAVEWESNGQPENNYKTTPPVLDSDGSFFLVSRLTVDKSRWQEGNVFSCSVMHEALHNHYTQKSLSLSLGK
notes: Knob-hole heterodimer with a single scFv, 77.3 kDa; FITC-conjugated in the flow cytometry assay on RBCs; also called huCO201-scFv-Fc-mono; huCO-scFv-Fc-mono

How the values were obtained:
[1] = target: T1, human CD47, cell-surface (on Jurkat cells, human red blood cells) (human, UniProt Q08722 19-323); experiment: flow cytometry, FITC-conjugated scFv on Jurkat cells, FITC MFI against log µg/ml
T1 construct: also called Integrin Associated protein (IAP); MER6
T1 sequence (Q08722 19-323 limits assumed): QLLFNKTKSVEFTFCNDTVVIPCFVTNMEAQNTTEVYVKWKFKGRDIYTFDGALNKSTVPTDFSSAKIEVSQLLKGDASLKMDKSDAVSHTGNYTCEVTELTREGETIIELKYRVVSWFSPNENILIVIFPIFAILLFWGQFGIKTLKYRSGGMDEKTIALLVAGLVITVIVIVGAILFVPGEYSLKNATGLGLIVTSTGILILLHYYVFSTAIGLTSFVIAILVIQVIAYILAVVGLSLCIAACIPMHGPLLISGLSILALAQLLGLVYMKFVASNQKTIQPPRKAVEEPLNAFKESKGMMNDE
Procedure: FIG. 5: Binding of huCO-scFv to Jurkat cells. Jurkat cells incubated with increasing concentrations of FITC-conjugated huCO-scFv. FITC-intensity was analyzed by flow cytometry.
DPBS-washed cancer cell lines or RBCs were pelleted and washed with washing buffer (3% (w/v) BSA, 1% (w/v) sodium azide in DPBS) and incubated with Human BD Fc Block for 10 minutes before being plated into a round-bottom 96 well plate (2.5×10⁵ cells per well). The cells were then incubated with various concentrations of FITC-conjugated huCO-scFv, or human IgG4 isotype control as indicated for 1h on ice with slight agitation. All samples were prepared in duplicates. The cells were analyzed by flow cytometry after three washes in washing buffer. Excitation wavelength FITC: 488 nm, detection: 530/30 nm.

[2] = target: T2, recombinant biotinylated CD47 (recCD47, SinoBiological 12283-H27H-B) (UniProt Q08722 19-139, biotinylated (AVI-tag)); experiment: SPR Biacore S200, biotinylated recCD47 on SA chip, scFv as analyte, single-cycle, 1:1 model, 25 C
T2 construct: Bought protein; also called recombinant CD47
T2 sequence (Q08722 19-139 limits assumed): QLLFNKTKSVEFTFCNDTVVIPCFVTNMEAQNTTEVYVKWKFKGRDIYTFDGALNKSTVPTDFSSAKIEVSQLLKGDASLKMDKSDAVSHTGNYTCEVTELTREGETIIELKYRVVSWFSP
Procedure: The binding affinity of the huCO-mAbs to CD47 was determined via surface plasmon resonance (SPR) on a Biacore S200 system. Recombinant biotinylated CD47 was immobilized on an SA streptavidin chip to a level of 100 RU (in 10 mM NaAc pH5.0). […]
A 1:1 binding model was used to fit the data. All curves are well fitted to the 1:1 model. […] The affinity constant KD is calculated as kd/kₐ.

[3] = target: T1, human CD47, cell-surface (on Jurkat …); experiment: cell-based or functional assay
[4] = target: T1, human CD47, cell-surface (on Jurkat …); experiment: flow cytometry on stimulated normal human B cells, FITC MFI against log µg/ml
Procedure: FIG. 6: Hemagglutination and binding of red blood cells (RBCs) by huCO-scFv. (A) 2% RBCs (v/v in PBS) were incubated with increasing concentrations of the indicated antibodies or fragments for 30 minutes. A small punctate circle indicates no hemagglutination, while a diffuse hazy pattern indicates hemagglutination. (B) 2% RBCs (v/v in PBS) were incubated with increasing concentrations of FITC-conjugated CO201-scFv and analyzed by flow cytometry. (C and D) B cells were isolated from buffycoats of healthy human donors using CD19 Dynabeads and stimulated with 1 μg/ml CpG and RP105 for 24 hours. (C) B cells were incubated with the indicated antibodies or fragments at increasing concentrations and analyzed for binding by flow cytometry. (D) B cells were incubated with the indicated antibodies or fragments at concentrations in μg/ml for 3 hours, followed by staining with Annexin V and 7-AAD. % PCD=Annexin V-positive cells.

[5] = target: T1, human CD47, cell-surface (on Jurkat …); experiment: flow cytometry on Jurkat cells, FITC MFI against log µg/ml
[6] = target: T2, recombinant biotinylated CD47 (recCD47, …); experiment: SPR Biacore S200, biotinylated recCD47 on SA chip, scFv as analyte, single-cycle, 1:1 model, 25 C; remark: listed apart in the source
Procedure: (§1) The affinity of CO-1 scFv to CD47 was determined via surface plasmon resonance (SPR) on a Biacore S200 system. Recombinant biotinylated CD47 was immobilized on an SA streptavidin chip to a level of 100 RU (in 10 mM NaAc pH 5.0). CO-1 scFv reacted with recombinant CD47 at gradient concentrations
(§2) A 1:1 binding model was used to fit the data. All curves are well fitted to the 1:1 model.

[7] = target: T1, human CD47, cell-surface (on Jurkat …); experiment: flow cytometry on Jurkat cells, detection with anti-His6-FITC, four parameter curve fit
Procedure: PBS-washed cancer cell lines or RBCs were pelleted and washed with washing buffer (3% (w/v) BSA, 1% (w/v) sodium azide in PBS) and incubated with Human BD Fc Block for 10 minutes before being plated into a round-bottom 96 well plate (2.5×10⁵ cells per well). The cells were then incubated with various concentrations of CO-1 scFv, or appropriate isotype controls as indicated for 1 h on ice with slight agitation. All samples were prepared in duplicates. Cells were washed twice, resuspended in cold His staining solution (1 μg/ml His₆-FITC in washing buffer), and incubated for 30 minutes on ice with slight agitation. Cells were analyzed by flow cytometry after two washes. Excitation wavelength FITC: 488 nm, detection: 530/30 nm.
The cells were incubated with increasing concentrations of CO-1 scFv, or isotype control, followed by incubation with an anti-His, FITC secondary antibody. […] The EC₅₀ for CO-1 scFv was analyzed by four parameter […] curve fitting in GraphPad and determined to be 0.05 ng/ml.

[8] = target: T2, recombinant biotinylated CD47 (recCD47, …); experiment: SPR Biacore S200, biotinylated recCD47 on SA chip, fusion protein as analyte, single-cycle, 1:1 model, 25 C
Procedure: as §1, with “The binding” for “The”, “of CO201-scFv-Fc-mono as described in Example 4” for “of CO-1 scFv”, “5.0). CO201-scFv-Fc-mono” for “5.0). CO-1 scFv”
as §2

Row | Binder | EC50 (read off the curve) [1] | Kd [2] | koff [2] | kon [2] | programmed cell death (PCD) of Jurkat cells, Annexin V-positive cells after 3 hours [3] | EC50 (read off the curve) [4] | also measured
1 | B1 | ~2 µg/mL | 0.061 nM | 0.00026 s⁻¹ | 4.3e+06 M⁻¹ s⁻¹ | ~60% |  | 
2 | B2 | ~2 µg/mL | 0.033 nM | 0.00017 s⁻¹ | 5.1e+06 M⁻¹ s⁻¹ | ~60% | ~4 µg/mL | 
3 | B3 | ~1 µg/mL | 0.048 nM | 0.00021 s⁻¹ | 4.4e+06 M⁻¹ s⁻¹ | ~60% |  | 
4 | B4 |  |  |  |  |  | ~0.2 µg/mL | EC50 (read off the curve) [5]: ~0.3 µg/mL
5 | B5 |  |  |  |  |  |  | Kd [6]: 0.179 nM and 0.18 nM; koff [6]: 0.0056 s⁻¹; kon [6]: 3.1e+07 M⁻¹ s⁻¹; EC50 [7]: 0.05 ng/mL
6 | B6 |  |  |  |  |  |  | Kd [8]: 0.097 nM; koff [8]: 0.0027 s⁻¹; kon [8]: 2.8e+07 M⁻¹ s⁻¹
